The source of these data is PMC7111185 (Biochemical and Biophysical Research Communications, 2004).

The assay deals with 30a-HR1 (His-tagged heptad repeat 1 region of SARS-CoV spike protein, amino acids 898-1005) (SARS-CoV, UniProt P59594 898-1005). Kind of assay: pull-down.

As to GDISGINASVVNIQKEIDRLNEVAKNLNESLIDLQELG (domain or fragment) [GST-HR2-38 (GST fusion of SARS-CoV spike HR2, amino acids 1149-1186)], the binding result was “binds”.
